“Also recorded” adds a separate entry of the source.
B1: wtRANKL: wild-type RANKL (mouse; purified, or from Amgen in Example 2) (protein, UniProt O35235 139-316, looked up)
Tumor necrosis factor ligand …: FSGAPAMMEGSWLDVAQRGKPEAQPFAHLTINAASIPSGSHKVTLSSWYHDRGWAKISNMTLSNGKLRVNQDGFYYLYANICFRHHETSGSVPTDYLQLMVYVVKTSIKIPSSHNLMKGGSTKNWSGNSEFHFYSINVGGFFKLRAGEEISIQVSNPSLLDPDQDATYFGAFKVQDID
B2: sRANKL: soluble RANKL; R&D Systems (protein)
chain: B1 Tumor necrosis factor ligand …

Assays:
[1] = test system: bone marrow-derived monocytes (BMMs); assay: TRAP analysis of osteoclastogenesis induced by RANKL variants in BMMs; type: cell-based, mouse; conditions: RANKL-treated primary BMM
Procedure: The RANKL-RANK binding sites are K180, D189, R190, H223, H224, which are conserved between humans and mice. We selected 4 mutant RANKLs to be purified. Their size corresponded to the wild type RANKL (39 kDa) (FIG. 2B). Tartrate-resistant acid […] (TRAP) activity was absent for all RANKLs even at 150 ng/mL (FIG. 2C, D).
4-week old male BALB/c mice were purchased from Orient Bio (Gwangju, Korea) and kept in an animal facility approved by the Chosun University Animal Management Committee (IACUC2017-A0002). After obtaining bone marrow cells from mice, bone marrow mononuclear cells were seeded into 96-well plates (1 Y 10^4 cells/well), and in the absence or presence of various concentrations of compounds, incubated with M-CSF (100 ng/mL) overnight before stimulation with RANKL (50 ng/well). The medium was replaced every other days. 6 days later, the cells were fixed with 4% paraformaldehyde, permeated in 0.1% Triton X-100, and washed with PBS. Then, TRAP activity (Sigma-Aldrich, St. Louis, Mo., USA) staining was performed. TRAP-positive multinuclear cells containing 5 or more nuclei were counted as osteoclasts.
To evaluate the effect of mtRANKL on osteoclastogenesis, TRAP analysis was performed on RANKL-treated primary bone marrow-derived macrophages (BMM) by the method described in Reference Example 2, and the results are shown in FIGS. 4B and 4C.

BMMs [2] = assay: Bone-resorption assay (Osteo Assay Surface plates); type: cell-based, mouse; conditions: 6 days, mRANKL-MT3 150 ng/mL
Procedure: (§1) We used bone-resorption and F-actin ring formation assays to investigate osteoclast activity. To observe bone resorption in vitro, BMMs were cultured in Corning Osteo Assay Surface 96-well Multiple Well Plates (Sigma) with 30 ng/mL M-CSF and 75 ng/mL sRANKL (soluble RANKL; R&D Systems) or isolated RANKL for 6 days. Then, the plates were washed with pure water. To monitor actin ring formation, BMMs were grown on glass slides. After culture, the cells were fixed with 4% formalin, permeabilized with 0.5% Triton X100 in PBS for 5 min at room temperature, and incubated with 0.5 mg/mL TRITC-labelled phalloidin for 30 min. The cells were then rinsed with PBS. F-actin rings were visualized using a fluorescence ECLIPSE Ts2R microscope (Nikon, Tokyo, Japan).

BMMs [3] = assay: F-actin ring formation assay; type: cell-based, mouse; conditions: mRANKL-MT3 150 ng/mL
Procedure: as §1

BALB/c mice = assay: Bone destruction by injected mtRANKL, micro-CT; type: in vivo, mouse; conditions: subcutaneous 1.0 mg/kg three times a week
Procedure: (§2) The right femur of each mouse subjected to each experiment was incised and CT imaging was performed using a Quantum GX pCT imaging system (PerkinElmer, Hopkinton, Mass., USA) located at the Korea Basic Science Institute in Gwangju. As for the X-ray source, the field of view was set to 45 mm, 90 kV and […] (voxel size, 90 μm; scanning time, 14 minutes). CT imaging was performed using a Quantum GX 3D Viewer software. After scanning, image segmentation was performed in Analyze (AnalyzeDirect, Overland Park, Kans., USA). Briefly, the legs were segmented using semi-automatic and manual tools (e.g., object extractor, area expansion, and object separator) using volume editing tools. Then, a 3D rendering of the leg was created, and bone mineral density (BMD), bone volume (BV), bone volume percentage (%), and trabecular thickness were calculated using the ROI tools.
To investigate the bone-destructive effect of mtRANKL, 4-week-old male BALB/c mice (Orient Bio) were placed in a cage capable of accommodating up to 4 animals in a light-controlled environment ([…]) and provided with autoclaved water and both whole and powdered rodent diet (Purina, St. Louis, Mo., USA). Starting from 6 weeks of age, 9 mice were randomly divided into three groups, and each group was subcutaneously injected with wild-type RANKL (Amgen, Thousand Oaks, Calif., USA), mtRANKL purified in Reference Example 2, and saline three times a week (1.0 mg/kg). The trabecular bone in femoral neck was examined by Micro-CT analysis described in Reference Example 6.

wtRANKL-induced mouse = assay: mtRANKL immunization in wtRANKL-induced osteoporosis mice, micro-CT; type: in vivo
Procedure: as §2
(§3) 17-week-old […] BALB/c mice were equally divided into 3 groups. The group was divided into a negative control group in which PBS was intraperitoneally injected, a group in which only wtRANKL was injected, and a group in which wtRANKL was injected after immunization with mtRANKL for 52 days. mtRANKL was injected after mixing with an aluminum hydroxide adjuvant. The immunization process started with 1st immunization of mtRANKL at 52 days, 2nd immunization at 39 days, 3rd immunization at 14 days each before injection of wtRANKL, and a total of 3 immunizations was performed. The amount of mtRANKL was 0.2 mg per mouse.
(§4) After 52 days, PBS was injected into the negative control group and wtRANKL was injected into the other two groups. Next day, wtRANKL was injected once more. wtRANK was subcutaneously injected (2.0 mg/kg). Serum was collected to determine the titer of anti-RANKL antibody. Then, after extracting tibias, the adhesive soft tissues of tibias were removed.
To examine whether RANKL has a bone destruction effect when RANKL was injected after immunization with mtRANKL, micro-CT analysis was performed by the method of Reference Example 6.

RANKL = assay: ELISA of serum RANKL levels; type: in vivo, mouse; conditions: wtRANKL 2.0 mg/kg s.c. to non-immunized mice, or to mice immunized with mtRANKL
Procedure: A commercially available enzyme immunoassay kit (R & D Systems, Minn., USA) was used to measure RANKL levels in the serum of mice according to the manufacturer's protocol. Absorbance (450 nm) was measured in a colorimetric microplate reader (BioTek, Winooski, USA). The reading of the absorbance was then subtracted from the reading at 570 nm.
as §3, §4

RANK and LGR4 signaling [4] = assay: Western blots of RANK and LGR4 signaling pathway proteins, RANKL variants; type: cell-based, mouse; conditions: BMMs, Western blot
Procedure: (§5) Proteins were separated by SDS-PAGE and electropermeated into a nitrocellulose membrane (Bio-Rad). After blocking the membrane with 5% (weight/volume) skim milk in TBST [10 mM Tris (pH 7.5), 150 mM NaCl, 0.1% (vol/vol) Tween 20], each mouse serum for primary antibody in the blocking solution was examined. The membrane was washed three times with Tris buffered saline. […] peroxidase (HRP)-conjugated secondary antibody was diluted 1:5000 with TBST in 1% (wt/vol) skim milk powder. ECL_system (Amersham Pharmacia Biotech) was used as the membrane.
Primary antibodies: AKT (Cell Signaling Technology, 1:1000), phospho-AKT (Cell Signaling Technology, #9271S, 1:1000), p38 (Cell Signaling Technology, 9212S, 1:1000), phospho-p38 (Cell Signaling Technology, #9211S, 1:1000), ERK (Cell Signaling Technology, 9102S, 1:1000), phospho-ERK (Cell Signaling Technology, #9101S, 1:1000), JNK (Cell Signaling Technology, 9252S, 1:1000), phosphoJNK (Cell Signaling Technology, #9251S, 1:1000), GSK-3β (Cell Signaling Technology, 9315S, 1:1000), phosphoGSK-3β (Cell Signaling Technology, #9336S, 1:1000), Src (Cell Signaling Technology, 2108S, 1:1000), phosphoSrc (Cell Signaling Technology, #2105S, 1:1000), NF-KB p65 (Cell Signaling Technology, #3034, 1:1000), phosphop65 (Cell Signaling Technology, #3031, 1:1000), RANK (Cell Signaling Technology, 4845S, 1:1000), Gaq (Cell Signaling Technology, 14373S, 1:1000), LGR4 (MyBioSource, MBS468030, 1:500), 20112360C-1, and GAPDH (Santa-Cruz Biotechnology, 1:2500).
To investigate the interaction of mRANKL variants and RANK, the co-immunoprecipitation (Co-IP) assays were carried out using mRANKL-WT/mRANKL-MT3 and RANK/LGR4 (FIG. 12A). In addition, wild-type RANKL induced MAPK, AKT, NF-κB p65, and GSK-3 phosphorylation, which is involved in LGR4 signaling (FIG. 12B).

isolated spleen cells = assay: Th1/Th2 cytokine secretion of isolated spleen cells; type: cell-based, mouse; conditions: culture supernatant of Sham and IM splenocytes stimulated with sRANKL or mRANKL-MT3
Excerpt: To determine whether mRANKL-MT3 immunization influences Th1 and Th2 cytokine production, we evaluated the effects of mRANKL-MT3 on IL-4 and IL-10 secretion, which are markers for Th2 responses, and IFN-γ, a marker for Th1 responses, in the culture supernatant of isolated spleen cells stimulated with sRANKL or mRANKL-MT3 (FIG. 8C).

sRANKL-induced mice = assay: Anti-RANKL IgGs in sRANKL-induced mice; type: in vivo, mouse
RANK and LGR4 signaling [5] = assay: Anti-RANKL on RANK and LGR4 signaling in BMMs; type: cell-based, mouse; conditions: Western blot, sRANKL
Procedure: as §5, with “membrane. […]” for “membrane.”
We verified that anti-RANKL suppressed RANK and LGR4 signaling in a time-dependent manner (FIG. 13A). […] In addition, NFATc1 nuclear translocation was not detected by Western blot analysis or confocal microscopy in anti-RANKL-treated BMMs in the presence of sRANKL compared with control IgG (FIG. 13B, 13C).

[6] = wtRANKL-injected mice vs mtRANKL-immunized mice with wtRANKL injection

Row | Molecule | number of TRAP-positive multinuclear osteoclasts / osteoclast differentiation [1] | resorption pits (BMMs [2]) | F-actin ring formation (BMMs [3]) | BMD, bone volume (BV), percentage (%) of bone volume, and trabecular thickness (BALB/c mice) | trabecular bone by Micro-CT (osteoporosis) (BALB/c mice) | bone volume and percentage of bone volume (wtRANKL-induced mouse; compared with PBS-treated mice) | BMD of tibias (wtRANKL-induced mouse; [6]) | trabecular bone architecture of proximal tibias (micro-CT) (wtRANKL-induced mouse; [6]) | level of RANKL in the blood (ELISA) (RANKL) | GSK-3 phosphorylation (RANK and LGR4 signaling [4]) | MAPK, AKT, and NF-κB p65 phosphorylation (RANK and LGR4 signaling [4]) | IFN-γ levels (isolated spleen cells) | IL-4 and IL-10 secretion (isolated spleen cells) | trabecular bone architecture of VOI from the distal femur (micro-CT) (sRANKL-induced mice; sRANKL-induced mice) | BMD, BV/TV, and Tb.N. values (sRANKL-induced mice; sRANKL-induced mice, quantitative micro-CT) | bone histomorphometric analysis and TRAP staining of femur (sRANKL-induced mice; sRANKL-treated mice) | circulating RANKL and CTX-1 levels (sRANKL-induced mice; sRANKL-treated mice sera) | MAPK, AKT, src, and GSK-3β phosphorylation (RANK and LGR4 signaling [5])
1 | B1 | significantly higher; also recorded: increased the number of TRAP-positive multinucleated cells | numerous resorption pits | a ring of intracellular F-actin filaments in the sealing zone | remarkably reduced | mild osteoporosis was observed | decreased | 738.0 ± 19.1 mg/mL | fenestrated trabecular bone and thinner rods forming the trabecular bone | increased | induced | induced | – | – | – | – | – | – | –
2 | B2 | – | – | – | – | – | – | – | – | – | – | – | no significant differences | significantly increased | mild osteoporosis | low | an increased number of TRAPpositive osteoclasts | higher | induced

Reference: US20210403586A1, “MUTANT OF RANKL AND PHARMACEUTICAL COMPOSITION COMPRISING SAME FOR PREVENTING OR TREATING OSTEOPOROSIS” (INDUSTRY-ACADEMIC COOPERATION FOUNDATION CHOSUN UNIVERSITY, priority 2018, published 2021)
